In PMC8748815, “The N-terminal tail of the hydrophobin SC16 is not required for rodlet formation” (Scientific Reports, 2022):

Target: the molecule itself
Experiment: thioflavin T fluorescence; self-assembly during agitation (air:water interface), 50 μg/mL protein, 20 μM ThT, multicomponent buffer pH 8.5 with 1 M NaCl (SC16ΔN also at pH 5.5-8.5 with 10 mM-1 M NaCl), 6 replicates

Protein | binding result
SC16 with the N-terminal signal sequence removed (18Thr-114Leu of the hyd1 gene of S. commune) (natural protein, Schizophyllum commune, UniProt D8QCG9 18-114, looked up, Expressed as H6-GB1-SC16 with a thrombin site; also called hydrophobin SC16; not shown: His6, N-terminal, cleaved; B1 domain of protein G (GB1), N-terminal, cleaved) TAVPRDVNGGTPPKSCSSGPVYCCNKTEDHLDKGTTALLGLLNIKIGDLKDLVGLNCSPLSVIGVGGNSCSAQTVCCTNTYQHGLVNVGCTPINIGL | binds
SC16 with 13 residues from the N-terminal tail removed (residues 31Lys-114Leu of SC16) (domain or fragment, Schizophyllum commune, UniProt D8QCG9 31-114, looked up, class IB hydrophobin SC16, product of the hyd1 gene of Schizophyllum commune, NCBI ID EFI94929, residues 31Lys-114Leu; Expressed as H6-GB1-SC16ΔN with a thrombin site; also called SC16ΔN; not shown: His6, N-terminal, cleaved; B1 domain of protein G (GB1), N-terminal, cleaved) KSCSSGPVYCCNKTEDHLDKGTTALLGLLNIKIGDLKDLVGLNCSPLSVIGVGGNSCSAQTVCCTNTYQHGLVNVGCTPINIGL | binds
